What follows are sequences tested on Escherichia coli TOP10 (assay: shrunken log2 fold change of peptide-encoding DNA abundance (4.5 h post-induction vs induction); higher = less antimicrobial activity (less host growth inhibition)). Conditions: time post-induction: 4.5 h; library: site-saturation at positions 5, 18, 19, 20.
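Also: peptides expressed intracellularly from a pBAD plasmid library in pooled LB shake-flask culture, induced with 0.3% L-arabinose, DNA abundance read by NGS, three biological replicates, DESeq2 with apeglm shrinkage.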

Row | Sequence | shrunken log2 fold change
1 | RRIRERPPRLPRPRPRPPEFPRP | 0.127
2 | RRIRERPPRLPRPRPRPPENPRP | 0.222
3 | RRIRERPPRLPRPRPRPPERPRP | 0.366
4 | RRIRERPPRLPRPRPRPPGFPRP | 0.479
5 | RRIRERPPRLPRPRPRPPHKPRP | 0.0221
6 | RRIRERPPRLPRPRPRPPHNPRP | 0.637
7 | RRIRERPPRLPRPRPRPPITPRP | -0.351
8 | RRIRERPPRLPRPRPRPPKKPRP | 0.0812
9 | RRIRERPPRLPRPRPRPPLLPRP | -0.0533
10 | RRIRERPPRLPRPRPRPPLYPRP | 0.127
11 | RRIRERPPRLPRPRPRPPNCPRP | -0.019
12 | RRIRERPPRLPRPRPRPPPPPRP | 0.646
13 | RRIRERPPRLPRPRPRPPPQPRP | 0.553
14 | RRIRERPPRLPRPRPRPPQCPRP | -0.302
15 | RRIRERPPRLPRPRPRPPSKPRP | -0.197
16 | RRIRERPPRLPRPRPRPPSNPRP | -0.208
17 | RRIRERPPRLPRPRPRPPSWPRP | -0.2
18 | RRIRERPPRLPRPRPRPPTMPRP | -0.151
19 | RRIRERPPRLPRPRPRPPWEPRP | 0.145
20 | RRIRERPPRLPRPRPRPQCEPRP | -0.0239
21 | RRIRERPPRLPRPRPRPQDCPRP | 0.015
22 | RRIRERPPRLPRPRPRPQFHPRP | -0.629

Row | Sequence | shrunken log2 fold change
23 | RRIRERPPRLPRPRPRPQFMPRP | 0.0848
24 | RRIRERPPRLPRPRPRPQHMPRP | -0.735
25 | RRIRERPPRLPRPRPRPQHTPRP | -0.32
26 | RRIRERPPRLPRPRPRPQIDPRP | -0.046
27 | RRIRERPPRLPRPRPRPQIEPRP | -0.208
28 | RRIRERPPRLPRPRPRPQLAPRP | 0.00697
29 | RRIRERPPRLPRPRPRPQLPPRP | 0.021
30 | RRIRERPPRLPRPRPRPQLQPRP | -0.0648
31 | RRIRERPPRLPRPRPRPQLRPRP | -0.00323
32 | RRIRERPPRLPRPRPRPQLYPRP | -0.441
33 | RRIRERPPRLPRPRPRPQMDPRP | 0.178
34 | RRIRERPPRLPRPRPRPQNAPRP | 0.0619
35 | RRIRERPPRLPRPRPRPQNEPRP | -0.581
36 | RRIRERPPRLPRPRPRPQQTPRP | -0.0895
37 | RRIRERPPRLPRPRPRPQREPRP | 0.0255
38 | RRIRERPPRLPRPRPRPQTAPRP | -0.0922
39 | RRIRERPPRLPRPRPRPQTSPRP | -0.37
40 | RRIRERPPRLPRPRPRPQVKPRP | -0.2
41 | RRIRERPPRLPRPRPRPQVMPRP | -0.303
42 | RRIRERPPRLPRPRPRPQWCPRP | -0.262
43 | RRIRERPPRLPRPRPRPQWSPRP | 0.0836
44 | RRIRERPPRLPRPRPRPRAPPRP | 0.524

Row | Sequence | shrunken log2 fold change
45 | RRIRERPPRLPRPRPRPRCFPRP | -0.128
46 | RRIRERPPRLPRPRPRPRFSPRP | -0.0175
47 | RRIRERPPRLPRPRPRPRHHPRP | -0.0796
48 | RRIRERPPRLPRPRPRPRHVPRP | 0.0784
49 | RRIRERPPRLPRPRPRPRILPRP | -0.202
50 | RRIRERPPRLPRPRPRPRKIPRP | 0.0442
51 | RRIRERPPRLPRPRPRPRLPPRP | 0.35
52 | RRIRERPPRLPRPRPRPRLSPRP | 0.134
53 | RRIRERPPRLPRPRPRPRLTPRP | -0.0882
54 | RRIRERPPRLPRPRPRPRMGPRP | -0.173
55 | RRIRERPPRLPRPRPRPRMIPRP | -0.0503
56 | RRIRERPPRLPRPRPRPRPNPRP | 0.451
57 | RRIRERPPRLPRPRPRPRPWPRP | 0.298
58 | RRIRERPPRLPRPRPRPRPYPRP | -0.0326
59 | RRIRERPPRLPRPRPRPRREPRP | 0.0467
60 | RRIRERPPRLPRPRPRPRRPPRP | 0.27
61 | RRIRERPPRLPRPRPRPRRRPRP | 0.261
62 | RRIRERPPRLPRPRPRPRSTPRP | -0.259
63 | RRIRERPPRLPRPRPRPRTAPRP | 0.131
64 | RRIRERPPRLPRPRPRPRTDPRP | 0.193
65 | RRIRERPPRLPRPRPRPRTKPRP | 0.175
66 | RRIRERPPRLPRPRPRPSAMPRP | -0.279

Row | Sequence | shrunken log2 fold change
67 | RRIRERPPRLPRPRPRPSDYPRP | -0.627
68 | RRIRERPPRLPRPRPRPSEHPRP | -0.0752
69 | RRIRERPPRLPRPRPRPSEKPRP | -0.0759
70 | RRIRERPPRLPRPRPRPSHFPRP | 0.000406
71 | RRIRERPPRLPRPRPRPSHVPRP | -2.72
72 | RRIRERPPRLPRPRPRPSIAPRP | -0.259
73 | RRIRERPPRLPRPRPRPSIYPRP | -1
74 | RRIRERPPRLPRPRPRPSLEPRP | -0.199
75 | RRIRERPPRLPRPRPRPSLPPRP | -0.19
76 | RRIRERPPRLPRPRPRPSLRPRP | -0.313
77 | RRIRERPPRLPRPRPRPSLTPRP | -0.699
78 | RRIRERPPRLPRPRPRPSMVPRP | -0.86
79 | RRIRERPPRLPRPRPRPSPQPRP | -0.0688
80 | RRIRERPPRLPRPRPRPSPRPRP | 0.265
81 | RRIRERPPRLPRPRPRPSQDPRP | -0.137
82 | RRIRERPPRLPRPRPRPSSPPRP | -0.824
83 | RRIRERPPRLPRPRPRPSTAPRP | -0.151
84 | RRIRERPPRLPRPRPRPSTMPRP | -0.925
85 | RRIRERPPRLPRPRPRPSTNPRP | -0.317
86 | RRIRERPPRLPRPRPRPSVYPRP | -0.493
87 | RRIRERPPRLPRPRPRPSWEPRP | -0.25
88 | RRIRERPPRLPRPRPRPSWIPRP | -0.0746

Row | Sequence | shrunken log2 fold change
89 | RRIRERPPRLPRPRPRPSYCPRP | -0.715
90 | RRIRERPPRLPRPRPRPSYGPRP | -0.708
91 | RRIRERPPRLPRPRPRPTASPRP | -0.15
92 | RRIRERPPRLPRPRPRPTAYPRP | -0.166
93 | RRIRERPPRLPRPRPRPTDKPRP | -0.234
94 | RRIRERPPRLPRPRPRPTDPPRP | -0.152
95 | RRIRERPPRLPRPRPRPTDVPRP | -0.0755
96 | RRIRERPPRLPRPRPRPTDYPRP | -0.349
97 | RRIRERPPRLPRPRPRPTGQPRP | -0.0359
98 | RRIRERPPRLPRPRPRPTHHPRP | -0.0607
99 | RRIRERPPRLPRPRPRPTITPRP | -0.598
100 | RRIRERPPRLPRPRPRPTKIPRP | -0.19
101 | RRIRERPPRLPRPRPRPTKPPRP | -0.394
102 | RRIRERPPRLPRPRPRPTLGPRP | 0.0905
103 | RRIRERPPRLPRPRPRPTMYPRP | -0.162
104 | RRIRERPPRLPRPRPRPTNCPRP | -0.165
105 | RRIRERPPRLPRPRPRPTNGPRP | -0.163
106 | RRIRERPPRLPRPRPRPTNKPRP | -0.533
107 | RRIRERPPRLPRPRPRPTNTPRP | -0.697
108 | RRIRERPPRLPRPRPRPTNWPRP | 0.0202
109 | RRIRERPPRLPRPRPRPTQDPRP | 0.217

From the supplement of paper PMC9112550, “Optimization of the antimicrobial peptide Bac7 by deep mutational scanning” (BMC Biology, 2022)
